Measurements: patent US20250320465A1 (FLAGSHIP PIONEERING INNOVATIONS V, published 2025)

Biological target: the molecule itself
Assay: structure of the VLP (self-assembly)

B1: Ring10-ORF1delCterm Helix (Ring10 ORF1 with a deletion of the C-terminus amino acids 610-672) VLP from Expi293 cells (other)
chain: MPWWYRRRSYNPWRRRNWFRRPRKTIYRRYRRRRRWVRRKPFYKRKIKRLNIVEWQPKSIRKCRIKGMLCLFQTTEDRLSYNFDMYEESIIPEKLPGGGGFSIKNISLYALYQEHIHAHNIFTHTNTDRPLARYTGCSLKFYQSKDIDYVVTYSTSLPLRSSMGMYNSMQPSIHLMQQNKLIVPSKQTQKRRKPYIKKHISPPTQMKSQWYFQHNIANIPLLMIRTTALTLDNYYIGSRQLSTNVTIHTLNTTYIQNRDWGDRNKTYYCQTLGTQRYFLYGTHSTAQNINDIKLQELIPLTNTQDYVQGFDWTEKDKHNITTYKEFLTKGAGNPFHAEWITAQNPVIHTANSPTQIEQIYTASTTTFQNKKLTDLPTPGYIFITPTVSLRYNPYKDLAERNKCYFVRSKINAHGWDPEQHQELINSDLPQWLLLFGYPDYIKRTQNFALVDTNYILVDHCPYTNPEKTPFIPLSTSFIEGRSPYSPSDTHEPDEEDQNRWYPCYQYQQESINSICLSGPGTPKIPKGITAEAKVKYSFNFKWGGDLPPMSTITNPTDQPTYVVPNNFNETTSLQNPTTRPEHFLYSFDERRGQLTEKATKRLLKDWETK
notes: also called Ring10-ORF1 delCterm-Helix (Δ610-672) (7052)
B1: binds.
